Data published in US8728980B2, “Peptide microarray and method of use” (The Regents of the University of California, priority 2011, dated 2014).
Non-standard residues stand in square brackets, D forms with d. Primed or numbered codes have the meaning given here. No end group written: not given here. Me3 = trimethylation of the lysine side chain; Me3(3) = trimethyl (trimethylated lysine); Lys(Me3) = C[N+](C)(C)CCCC[C@H](N)C(=O)O

Biological target: T1, Polycomb protein chromodomain (Drosophila melanogaster, UniProt P26017)
T1 construct: The chromodomain (a.a. 1-90) of Polycomb protein was expressed as GST-tagged fusion protein; made in house
T1 sequence (P26017 1-90): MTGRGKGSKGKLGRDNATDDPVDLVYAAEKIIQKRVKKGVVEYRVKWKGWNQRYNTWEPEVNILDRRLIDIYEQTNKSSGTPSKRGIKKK
Experiment: Peptide microarray binding of GST-tagged Polycomb chromodomain
Parameters: dose or concentration left out as unconfirmed
Conditions: Binder if at least two of three spots pass p-value cutoff 0.001 from background
Excerpt: There are a total of 46 histone peptide sequences (9 a.a. long) with a single lysine-trimethylation site which are conserved between the human and fruit fly H2, H3 and H4 proteins (Table II). These were screened for Polycomb protein chromodomain binding by peptide microarray. Each peptide sequence was screened as triplets, and the fluorescence intensity was quantified with background subtraction individually for each spot from the microarray images by ImageJ^9 and the whole data set was fit to a mixed Gaussian distribution model (FIG. 8, Table III).
Twelve out of the 46 sequences were identified as positive binders under these criteria. Ten of these microarray-identified binders also yielded high mutation matrix score in an independent prediction (Table IV).
The chromodomain (a.a. 1-90) of Polycomb protein was expressed as GST-tagged fusion protein and purified as described in [65]. The purity of the protein was examined by SDS-PAGE electrophoresis followed by both Coomassie staining and western blot using an Anti-GST-HRP conjugate (Santa Cruz Biotechnology). The concentration of purified protein was determined by BCA assay (Amresco). A total of 46 trimethylated histone peptides were synthesized by Sigma Aldrich (desalted, mass spectrometry checked). The peptides were then printed as triplets onto glass slides (ArrayIt), together with a Cy3 marker and an anti-GST (mouse monoclonal) antibody (Thermo) as references.
The peptide microarray was rinsed with TBST buffer (25 mM Tris, 125 mM NaCl, 0.05% Tween-20, pH 8) followed by blocking with 5% non-fat milk in TBST (room temperature 1 hour or 4° C. overnight). The slide was then incubated at 4° C. with Polycomb-GST fusion protein at a final concentration of […] in 5% non-fat milk/TBST for 6 hours. After washing three times for 10 minutes each with TBST, the slide was incubated with an anti-GST mouse monoclonal IgG antibody (Thermo) at a final concentration of 1 μg/mL in 5% non-fat milk/TBST and shaken gently for 1 hour at room temperature. A secondary anti-mouse IgG Dylight-488 conjugated antibody (Thermo) was added to a final concentration of 0.1 μg/mL after three more cycles of 10 minutes washing with TBST. The slide was shaken for 1 hr at room temperature and washed three times with TBST.
The dried microarray slides were scanned using a Hamamatsu NanoZoomer 2.0HT Slide Scanning System (Neuroscience Light Microscopy Facility, UCSD). Data quantification were processed using the microarray processing software ImageJ^9, where the fluorescent intensity of a microarray spot was defined as its own intensity minus the background intensity around it on the scanned image.

APATGGVKK (not fully specified (residue 8); also: trimethylated lysine, site not given here) [9-residue histone peptide, H3_DROME, trimethylated lysine site 36]
Array Verification: NonBinder

APSTGGVKK (also: trimethylated Lys, site not given here) [9-residue histone peptide, H33_DROME, trimethylated lysine site 36]
Array Verification: NonBinder

ARKSTGGKA (also: trimethylated Lys, site not given here) [9-residue histone peptide, H3_DROME, trimethylated lysine site 14]
Array Verification: NonBinder

ASKDLKVKR (not fully specified (residue 8); also: trimethylated lysine, site not given here)
Array Verification: Binder

DNIQGITKP (DNIQGIT[Lys(Me3)]P) [9-residue histone peptide, H4_DROME, trimethylated lysine site 31]
Array Verification: NonBinder

DSGKAKAKA (not fully specified (residue 8); also: trimethylated lysine, site not given here)
Array Verification: Binder

EELDSLIKA (EELDSLI[Lys(Me3)]A)
Array Verification: NonBinder

EETRGVLKV (EETRGVL[Lys(Me3)]V) [9-residue histone peptide, H4_DROME, trimethylated lysine site 59]
Array Verification: NonBinder

EGTKAVTKY (also: trimethylated Lys, site not given here)
Array Verification: Binder

ELAGNASKD (ELAGNASK(Me3(3))D)
Array Verification: NonBinder

GGAKRHRKV (also: trimethylated lysine, site not given here) [9-residue histone peptide, H4_DROME, trimethylated lysine site 20]
Array Verification: Binder

GKDSGKAKA (not fully specified (residue 8); also: trimethylated lysine, site not given here)
Array Verification: NonBinder

GLGKGGAKR [9-residue histone peptide, H4_DROME, trimethylated lysine site 16]
Array Verification: NonBinder

GNAARDNKK (also: trimethylated Lys, site not given here)
Array Verification: NonBinder

GNASKDLKV (not fully specified (residue 8); also: trimethylated lysine, site not given here)
Array Verification: NonBinder

GRIHRHLKS (GRIHRHLK(Me3(3))S)
Array Verification: Binder

GVIPHIHKS (GVIPHIHK(Me3(3))S)
Array Verification: NonBinder

HAVSEGTKA (HAVSEGTK(Me3(3))A)
Array Verification: NonBinder

IHKSLIGKK (not fully specified (residue 8); also: trimethylated lysine, site not given here)
Array Verification: NonBinder

IQAVLLPKK (not fully specified (residue 8); also: trimethylated lysine, site not given here)
Array Verification: Binder

IYIYKVLKQ (also: trimethylated Lys, site not given here)
Array Verification: NonBinder

KAGKDSGKA (not fully specified (residue 8); also: trimethylated lysine, site not given here)
Array Verification: NonBinder

KGGKGLGKG (not fully specified (residue 8); also: trimethylated lysine, site not given here) [9-residue histone peptide, H4_DROME, trimethylated lysine site 12]
Array Verification: NonBinder

KRVTIMPKD (not fully specified (residue 8); also: trimethylated lysine, site not given here) [9-residue histone peptide, H3_DROME, trimethylated lysine site 122]
Array Verification: NonBinder

LARRGGVKR (LARRGGVK(Me3(3))R) [9-residue histone peptide, H4_DROME, trimethylated lysine site 44]
Array Verification: NonBinder

LLPGELAKH (LLPGELAK(Me3(3))H)
Array Verification: NonBinder

MAGGKAGKD (not fully specified (residue 8); also: trimethylated lysine, site not given here)
Array Verification: NonBinder

MDVVYALKR (MDVVYALK(Me3(3))R) [9-residue histone peptide, H4_DROME, trimethylated lysine site 91]
Array Verification: Binder

NAARDNKKT (also: trimethylated Lys, site not given here)
Array Verification: NonBinder

NLCAIHAKR (NLCAIHAK(Me3(3))R) [9-residue histone peptide, H3_DROME, trimethylated lysine site 115]
Array Verification: NonBinder

PATGGVKKP (not fully specified (residue 8); also: trimethylated lysine, site not given here) [9-residue histone peptide, H3_DROME, trimethylated lysine site 37]
Array Verification: NonBinder

PDTGISSKA (PDTGISSK(Me3(3))A)
Array Verification: NonBinder

PRKQLATKA (PRKQLATK(Me3)A) [9-residue histone peptide, H3_DROME, trimethylated lysine site 23]
Array Verification: Binder

PSTGGVKKP (also: trimethylated Lys, site not given here) [9-residue histone peptide, H33_DROME, trimethylated lysine site 37]
Array Verification: NonBinder

QAVLLPKKT (QAVLLPKK(Me3)T)
Array Verification: NonBinder

REIAQDFKT (REIAQDFK(Me3(3))T) [9-residue histone peptide, H3_DROME, trimethylated lysine site 79]
Array Verification: NonBinder

REIRRYQKS (REIRRYQK(Me3(3))S) [9-residue histone peptide, H3_DROME, trimethylated lysine site 56]
Array Verification: Binder

RIHRLLRKG (RIHRLLRK(Me3(3))G)
Array Verification: Binder

RNDEELNKL (RNDEELNK(Me3(3))L)
Array Verification: NonBinder

RTKQTARKS (also: trimethylated lysine, site not given here) [9-residue histone peptide, H3_DROME, trimethylated lysine site 9]
Array Verification: Binder

SRLAHYNKR (SRLAHYNK(Me3(3))R)
Array Verification: NonBinder

STELLIRKL (STELLIRK(Me3(3))L) [9-residue histone peptide, H3_DROME, trimethylated lysine site 64]
Array Verification: NonBinder

TGGKAPRKQ (also: trimethylated Lys, site not given here) [9-residue histone peptide, H3_DROME, trimethylated lysine site 18]
Array Verification: NonBinder

VTYTEHAKR (VTYTEHAK(Me3(3))R) [9-residue histone peptide, H4_DROME, trimethylated lysine site 77]
Array Verification: NonBinder

YTEHAKRKT (YTEHAKRK(Me3)T) [9-residue histone peptide, H4_DROME, trimethylated lysine site 79]
Array Verification: NonBinder
